Data reported in patent US20140294898A1 (published 2014).
Positions of bridges follow the written chain, without caps; N, C: chain ends. Non-standard residues stand in square brackets, D forms with d. Primed or numbered codes have the meaning given here. NMeF = CN[C@@H](Cc1ccccc1)C(=O)O; PEG12′ = C-terminal PEG12 spacer; NMeNle = CCCC[C@H](NC)C(=O)O; NMeA = CN[C@@H](C)C(=O)O; Sar = CNCC(=O)O

Assays:
[1] = target: T1, hPDL1(19-239)-TVMV-His (human, UniProt Q9NZQ7 19-239); test: HTRF competition, PD-1-Ig (20 nM) binding to human PD-L1-His (10 nM)
T1 construct: The construct name says 19-239, the running text says amino acids 18-239; Expressed in HEK293T cells; also called PD-L1-His; PD-L1-TVMV-His
T1 sequence (Q9NZQ7 other isoform, or with tags, fused parts or gaps limits assumed): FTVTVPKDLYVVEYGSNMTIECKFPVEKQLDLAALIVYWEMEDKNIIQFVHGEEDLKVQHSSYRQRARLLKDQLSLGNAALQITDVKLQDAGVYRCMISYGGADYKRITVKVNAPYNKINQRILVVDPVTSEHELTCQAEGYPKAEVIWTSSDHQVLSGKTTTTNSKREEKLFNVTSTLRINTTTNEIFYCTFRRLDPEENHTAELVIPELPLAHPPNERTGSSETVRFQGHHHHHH

[2] = target: T2, human PD-L1 (human, UniProt Q9NZQ7 19-239, limits assumed); test: cell binding assay, inhibition of human PD-L1/PD-1 binding (cell format not given)
T2 construct: also called Hu PD-L1; hPD-L1
T2 sequence (Q9NZQ7 19-239 limits assumed): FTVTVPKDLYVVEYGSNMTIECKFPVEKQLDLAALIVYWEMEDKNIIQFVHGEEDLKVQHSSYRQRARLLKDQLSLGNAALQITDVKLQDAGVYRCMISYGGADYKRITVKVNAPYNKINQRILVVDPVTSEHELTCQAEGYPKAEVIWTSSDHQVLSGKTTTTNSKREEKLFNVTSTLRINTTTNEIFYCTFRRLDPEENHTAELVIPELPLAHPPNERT

[3] = target: T3, hPDL1(19-239)-TVMV-His (human, UniProt Q9NZQ7 19-239); test: HTRF competition, inhibitor titrated against PD-1-Ig binding to PD-L1-His
T3 construct: The text says amino acids 18-239, the construct name says 19-239; also called PD-L1-His; PD-L1-TVMV-His
Experimental: All binding studies were performed in an HTRF assay buffer consisting of dPBS supplemented with 0.1% (w/v) bovine serum albumin and 0.05% (v/v) Tween-20. […] PD-L1 fusion proteins from either human, cynomologous macaques, or mouse were used. HTRF detection was achieved using europium crypate-labeled anti-Ig monoclonal antibody (1 nM final) and allophycocyanin (APC) labeled anti-His monoclonal antibody (20 nM final). Antibodies were diluted in HTRF detection buffer and 5 μl was dispensed on top of binding reaction. The reaction was allowed to equilibrate for 30 minutes and signal (665 nm/620 nm ratio) was obtained using an EnVision fluorometer. […]
T3 sequence (Q9NZQ7 other isoform, or with tags, fused parts or gaps limits assumed): as the sequence (Q9NZQ7 other isoform, or with tags, fused parts or gaps limits assumed) above

[4] = target: human PD-L1 on cells (human, UniProt Q9NZQ7 19-290); test: cell-based or functional assay
human PD-L1 on cells, sequence (Q9NZQ7 19-290): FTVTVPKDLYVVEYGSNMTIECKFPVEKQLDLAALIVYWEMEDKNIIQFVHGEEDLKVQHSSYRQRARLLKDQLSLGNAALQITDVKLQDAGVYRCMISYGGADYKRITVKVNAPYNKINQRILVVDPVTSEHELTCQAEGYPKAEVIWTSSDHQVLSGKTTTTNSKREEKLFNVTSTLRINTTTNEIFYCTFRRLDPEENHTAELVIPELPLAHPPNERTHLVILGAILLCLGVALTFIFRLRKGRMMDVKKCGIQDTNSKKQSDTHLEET

[5] = target: T4, human PD-L1 (human, UniProt Q9NZQ7 19-239, limits assumed); test: cell binding assay, inhibition of human PD-L1/PD-1 binding on cells (cell format not given)
T4 construct: also called Hu PD-L1; hPD-L1
T4 sequence (Q9NZQ7 19-239 limits assumed): as the sequence (Q9NZQ7 19-239 limits assumed) above

{CH2CO}-F[NMeF][NMeNle][Sar]DV[NMeF]Y[Sar]WYLCG-{PEG12′-NH2} (thioether N-13) [Compound No. 118]
IC50 [1]: 0.003 µM

B1: Compound No. 83 (peptide)
peptide: FFXGDVFAGWYLCG
HELM: PEPTIDE1{[O=C(C[*:3])[*:2]].F.[meF].[CCCC[C@@H](C(=O)[*:2])N(C)[*:1]].[Sar].D.V.[meF].A.[Sar].W.Y.L.C.G.[am]}$PEPTIDE1,PEPTIDE1,1:R3-14:R3$$$V2.0
SMILES: CCCC[C@H]1C(=O)N(C)CC(=O)N[C@@H](CC(=O)O)C(=O)N[C@@H](C(C)C)C(=O)N(C)[C@@H](Cc2ccccc2)C(=O)N[C@@H](C)C(=O)N(C)CC(=O)N[C@@H](Cc2c[nH]c3ccccc23)C(=O)N[C@@H](Cc2ccc(O)cc2)C(=O)N[C@@H](CC(C)C)C(=O)N[C@H](C(=O)NCC(N)=O)CSCC(=O)N[C@@H](Cc2ccccc2)C(=O)N(C)[C@@H](Cc2ccccc2)C(=O)N1C
notes: Variant of Compound No. 71: Tyr8 to Ala
IC50 [2]: 0.075 µM

B2: Compound No. 3 (peptide)
peptide: {CH2CO}-F[NMeA]NPHRSWRW[NMeNle][NMeNle]LCG-NH2
modifications: thioether N-14
SMILES: CCCC[C@H]1C(=O)N(C)[C@@H](CCCC)C(=O)N[C@@H](CC(C)C)C(=O)N[C@H](C(=O)NCC(N)=O)CSCC(=O)N[C@@H](Cc2ccccc2)C(=O)N(C)[C@@H](C)C(=O)N[C@@H](CC(N)=O)C(=O)N2CCC[C@H]2C(=O)N[C@@H](Cc2c[nH]cn2)C(=O)N[C@@H](CCCNC(=N)N)C(=O)N[C@@H](CO)C(=O)N[C@@H](Cc2c[nH]c3ccccc23)C(=O)N[C@@H](CCCNC(=N)N)C(=O)N[C@@H](Cc2c[nH]c3ccccc23)C(=O)N1C
notes: Macrocyclic peptide; X stands for norleucine
IC50 [3]: 0.013 µM

B3: Compound No. 4 (peptide)
peptide: {CH2CO}-F[NMeA]NPLRSWRW[NMeNle][NMeNle]LCG-NH2
modifications: thioether N-14
SMILES: CCCC[C@H]1C(=O)N(C)[C@@H](CCCC)C(=O)N[C@@H](CC(C)C)C(=O)N[C@H](C(=O)NCC(N)=O)CSCC(=O)N[C@@H](Cc2ccccc2)C(=O)N(C)[C@@H](C)C(=O)N[C@@H](CC(N)=O)C(=O)N2CCC[C@H]2C(=O)N[C@@H](CC(C)C)C(=O)N[C@@H](CCCNC(=N)N)C(=O)N[C@@H](CO)C(=O)N[C@@H](Cc2c[nH]c3ccccc23)C(=O)N[C@@H](CCCNC(=N)N)C(=O)N[C@@H](Cc2c[nH]c3ccccc23)C(=O)N1C
notes: as for B2
IC50 [3]: 0.015 µM

B4: Compound No. 2 (peptide)
peptide: {CH2CO}-F[NMeA]NPHHSWRW[NMeNle][NMeNle]LCG-NH2
modifications: thioether N-14
SMILES: CCCC[C@H]1C(=O)N(C)[C@@H](CCCC)C(=O)N[C@@H](CC(C)C)C(=O)N[C@H](C(=O)NCC(N)=O)CSCC(=O)N[C@@H](Cc2ccccc2)C(=O)N(C)[C@@H](C)C(=O)N[C@@H](CC(N)=O)C(=O)N2CCC[C@H]2C(=O)N[C@@H](Cc2c[nH]cn2)C(=O)N[C@@H](Cc2c[nH]cn2)C(=O)N[C@@H](CO)C(=O)N[C@@H](Cc2c[nH]c3ccccc23)C(=O)N[C@@H](CCCNC(=N)N)C(=O)N[C@@H](Cc2c[nH]c3ccccc23)C(=O)N1C
IFNγ secretion by CMV-specific T cells (ELISA), EC50 [4]: 0.4 µM

B5: Compound No. 82 (peptide)
peptide: FFXGDVFYGWYLCG
HELM: PEPTIDE1{[O=C(C[*:3])[*:2]].F.[meF].[CCCC[C@@H](C(=O)[*:2])N(C)[*:1]].[Sar].D.V.F.Y.[Sar].W.Y.L.C.G.[am]}$PEPTIDE1,PEPTIDE1,1:R3-14:R3$$$V2.0
SMILES: CCCC[C@H]1C(=O)N(C)CC(=O)N[C@@H](CC(=O)O)C(=O)N[C@@H](C(C)C)C(=O)N[C@@H](Cc2ccccc2)C(=O)N[C@@H](Cc2ccc(O)cc2)C(=O)N(C)CC(=O)N[C@@H](Cc2c[nH]c3ccccc23)C(=O)N[C@@H](Cc2ccc(O)cc2)C(=O)N[C@@H](CC(C)C)C(=O)N[C@H](C(=O)NCC(N)=O)CSCC(=O)N[C@@H](Cc2ccccc2)C(=O)N(C)[C@@H](Cc2ccccc2)C(=O)N1C
notes: Variant of Compound No. 71: mPhe7 to Phe (N-methyl removed)
IC50 [2]: 0.203 µM

{CH2CO}-FLIVIRDRVFRCG-NH2 (thioether N-12, also called Compound 99)
IC50 [5]: 1.4 µM

B6: Compound No. 75 (peptide)
peptide: FFAGDVFYGWYLCG
HELM: PEPTIDE1{[O=C(C[*:3])[*:2]].F.[meF].[meA].[Sar].D.V.[meF].Y.[Sar].W.Y.L.C.G.[am]}$PEPTIDE1,PEPTIDE1,1:R3-14:R3$$$V2.0
SMILES: CC(C)C[C@@H]1NC(=O)[C@H](Cc2ccc(O)cc2)NC(=O)[C@H](Cc2c[nH]c3ccccc23)NC(=O)CN(C)C(=O)[C@H](Cc2ccc(O)cc2)NC(=O)[C@H](Cc2ccccc2)N(C)C(=O)[C@H](C(C)C)NC(=O)[C@H](CC(=O)O)NC(=O)CN(C)C(=O)[C@H](C)N(C)C(=O)[C@H](Cc2ccccc2)N(C)C(=O)[C@H](Cc2ccccc2)NC(=O)CSC[C@@H](C(=O)NCC(N)=O)NC1=O
notes: Variant of Compound No. 71: mNle3 to mAla
IC50 [2]: 0.438 µM

B7: Compound No. 71 (peptide)
peptide: FFXGDVFYGWYLCG
HELM: PEPTIDE1{[O=C(C[*:3])[*:2]].F.[meF].[CCCC[C@@H](C(=O)[*:2])N(C)[*:1]].[Sar].D.V.[meF].Y.[Sar].W.Y.L.C.G.[am]}$PEPTIDE1,PEPTIDE1,1:R3-14:R3$$$V2.0
SMILES: CCCC[C@H]1C(=O)N(C)CC(=O)N[C@@H](CC(=O)O)C(=O)N[C@@H](C(C)C)C(=O)N(C)[C@@H](Cc2ccccc2)C(=O)N[C@@H](Cc2ccc(O)cc2)C(=O)N(C)CC(=O)N[C@@H](Cc2c[nH]c3ccccc23)C(=O)N[C@@H](Cc2ccc(O)cc2)C(=O)N[C@@H](CC(C)C)C(=O)N[C@H](C(=O)NCC(N)=O)CSCC(=O)N[C@@H](Cc2ccccc2)C(=O)N(C)[C@@H](Cc2ccccc2)C(=O)N1C
notes: as for B2
IC50 [3]: 0.007 µM

B8: Compound No. 2 (peptide)
peptide: {CH2CO}-F[NMeA]NPHHSWRW[NMeNle][NMeNle]LCG-NH2
modifications: thioether N-14
SMILES: CCCC[C@H]1C(=O)N(C)[C@@H](CCCC)C(=O)N[C@@H](CC(C)C)C(=O)N[C@H](C(=O)NCC(N)=O)CSCC(=O)N[C@@H](Cc2ccccc2)C(=O)N(C)[C@@H](C)C(=O)N[C@@H](CC(N)=O)C(=O)N2CCC[C@H]2C(=O)N[C@@H](Cc2c[nH]cn2)C(=O)N[C@@H](Cc2c[nH]cn2)C(=O)N[C@@H](CO)C(=O)N[C@@H](Cc2c[nH]c3ccccc23)C(=O)N[C@@H](CCCNC(=N)N)C(=O)N[C@@H](Cc2c[nH]c3ccccc23)C(=O)N1C
notes: also called Compound 2
IC50 [5]: 0.043 µM

{CH2CO}-F[NMeA]NPHHSWRW[NMeNle][NMeNle]LCG-{PEG12′-NH2} (thioether N-14) [Compound No. 117]
IC50 [1]: 0.021 µM

B9: Compound No. 4 (peptide)
peptide: {CH2CO}-F[NMeA]NPLRSWRW[NMeNle][NMeNle]LCG-NH2
modifications: thioether N-14
SMILES: CCCC[C@H]1C(=O)N(C)[C@@H](CCCC)C(=O)N[C@@H](CC(C)C)C(=O)N[C@H](C(=O)NCC(N)=O)CSCC(=O)N[C@@H](Cc2ccccc2)C(=O)N(C)[C@@H](C)C(=O)N[C@@H](CC(N)=O)C(=O)N2CCC[C@H]2C(=O)N[C@@H](CC(C)C)C(=O)N[C@@H](CCCNC(=N)N)C(=O)N[C@@H](CO)C(=O)N[C@@H](Cc2c[nH]c3ccccc23)C(=O)N[C@@H](CCCNC(=N)N)C(=O)N[C@@H](Cc2c[nH]c3ccccc23)C(=O)N1C
notes: also called Compound 4
IC50 [5]: 0.015 µM

{CH2CO}-FLIVIRDRVFRCG-NH2 (thioether N-12)
IFNγ secretion by CMV-specific T cells (ELISA), EC50 [4]: > 10 µM

B10: Compound No. 71 (peptide)
peptide: FFXGDVFYGWYLCG
HELM: PEPTIDE1{[O=C(C[*:3])[*:2]].F.[meF].[CCCC[C@@H](C(=O)[*:2])N(C)[*:1]].[Sar].D.V.[meF].Y.[Sar].W.Y.L.C.G.[am]}$PEPTIDE1,PEPTIDE1,1:R3-14:R3$$$V2.0
SMILES: CCCC[C@H]1C(=O)N(C)CC(=O)N[C@@H](CC(=O)O)C(=O)N[C@@H](C(C)C)C(=O)N(C)[C@@H](Cc2ccccc2)C(=O)N[C@@H](Cc2ccc(O)cc2)C(=O)N(C)CC(=O)N[C@@H](Cc2c[nH]c3ccccc23)C(=O)N[C@@H](Cc2ccc(O)cc2)C(=O)N[C@@H](CC(C)C)C(=O)N[C@H](C(=O)NCC(N)=O)CSCC(=O)N[C@@H](Cc2ccccc2)C(=O)N(C)[C@@H](Cc2ccccc2)C(=O)N1C
notes: also called Compound 71
IC50 [5]: 0.01 µM

{CH2CO}-F[NMeA]NPHL[Sar]WSW[NMeNle][NMeNle]RCG-{PEG12′-NH2} (thioether N-14) [Compound No. 116]
IC50 [1]: 0.021 µM
